Measured values as given in patent US20080306007A1 (NEWCASTLE INNOVATION, published 2008).

Key:
[1] = target: T1, endophilin I (native, from rat brain lysate or synaptosomes) (rat, UniProt O35179 1-352); experiment: peptide competition in GST-DynI-PRD pull-down from rat brain lysate, Western blot
T1 construct: mature
Method: Total rat brain extract was prepared by homogenising brain tissue in ice-cold lysis buffer (1% Triton X-100, 150 mM NaCl, 25 mM Tris pH 7.4, 1 mM EDTA, 1 mM EGTA, 20 μg/ml leupeptin, 1 mM phenylmethylsulfonyl fluoride and EDTA-free Complete protease inhibitor (Roche)). The homogenate was centrifuged twice at 75,600 g for 30 min at 4° C. The supernatant was pre-cleared by addition of GSH-sepharose beads for 1 h, pelleted at 50 g for 5 min at 4° C., and the supernatant collected. GST-DynI-PRD recombinant proteins were then incubated with an equal amount of tissue lysate at 4° C. for 1 h. Beads were washed extensively with ice-cold 20 mM Tris pH 7.4 containing 1 mM EGTA, eluted in 2×SDS-PAGE sample buffer, resolved on 7.5-15% gradient SDS gels and stained with colloidal Coomassie Blue. Identification of proteins was by matrix-assisted laser desorption ionization time-of-flight mass spectrometry (MALDI-TOF MS). Some peptides were sequenced by tandem MS/MS.
A common characteristic of most binding sites for SH3 domains is the presence of the core amino acid motif PxxP, which is often followed or preceded by a basic Arg residue. There are 13 such motifs in the dynamin I PRD (numbered from site 1 at the N-terminus of the PRD at Pro-753 in dynamin I). […]

[2] = target: T2, syndapin I (native, from rat brain lysate or synaptosomes) (rat, UniProt Q9Z0W5 1-441); experiment: GST pull-down from rat brain lysate
T2 construct: also called PACSIN I; 52 kDa band
T2 sequence (Q9Z0W5 whole entry): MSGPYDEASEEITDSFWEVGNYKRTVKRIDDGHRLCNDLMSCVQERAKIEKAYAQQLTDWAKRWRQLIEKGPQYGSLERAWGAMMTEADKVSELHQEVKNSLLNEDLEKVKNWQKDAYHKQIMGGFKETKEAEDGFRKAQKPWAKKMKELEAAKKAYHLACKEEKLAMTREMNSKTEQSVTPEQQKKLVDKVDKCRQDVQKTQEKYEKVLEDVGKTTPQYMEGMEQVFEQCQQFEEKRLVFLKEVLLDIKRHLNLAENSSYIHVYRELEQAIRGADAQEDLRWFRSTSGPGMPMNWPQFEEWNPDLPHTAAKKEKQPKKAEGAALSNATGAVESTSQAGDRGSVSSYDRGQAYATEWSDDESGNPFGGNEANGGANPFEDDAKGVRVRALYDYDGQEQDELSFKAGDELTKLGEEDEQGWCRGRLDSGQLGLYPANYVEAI

T1 sequence (O35179 whole entry): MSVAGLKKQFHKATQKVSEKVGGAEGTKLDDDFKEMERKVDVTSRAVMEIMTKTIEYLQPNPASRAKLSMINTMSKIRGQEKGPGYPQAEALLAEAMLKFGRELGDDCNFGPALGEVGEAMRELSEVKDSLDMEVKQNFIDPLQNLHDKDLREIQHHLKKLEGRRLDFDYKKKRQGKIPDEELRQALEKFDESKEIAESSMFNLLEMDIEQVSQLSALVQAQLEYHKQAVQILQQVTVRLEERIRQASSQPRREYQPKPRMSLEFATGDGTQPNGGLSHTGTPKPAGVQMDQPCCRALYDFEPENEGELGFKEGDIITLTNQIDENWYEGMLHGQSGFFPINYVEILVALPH

| fold weaker inhibitory effect than on syndapin I binding [1] [fold] | binding result [2] | Binder |
| --- | --- | --- |
| 5 | – | RRAPAVPPARPGSR (Synthetic peptide of the site 2 and site 3 region of dynamin I) [DynI783-796 peptide] |
| – | no binding | GST-DynI-2D (other, rat, UniProt P21575 746-864, looked up, range 746-864; not shown: glutathione S-transferase tag from vector pGEX4T-1) NTTTVSTPMPPPVDDSWLQVQSVPAGRRSPTSSPTPQEEAPAVPPARPGSRGPAPGPPPAGSALGGAPPVPSRPGASPDPFGPPPQVPSRPNRAPPGVPSRSGQASPSRPESPRPPFDL |
| – | no binding | GST-DynI-2E (other, rat, UniProt P21575 746-864, looked up, range 746-864; not shown: glutathione S-transferase tag from vector pGEX4T-1) NTTTVSTPMPPPVDDSWLQVQSVPAGRRSPTSSPTPQAAAPAVPPARPGSRGPAPGPPPAGSALGGAPPVPSRPGASPDPFGPPPQVPSRPNRAPPGVPSRSGQASPSRPESPRPPFDL |
